Experimental findings from publication PMC2966416 are described below.

The target in assay [1] is NCenH3^CenpA-lacI (human).
Assay [2] addresses NCenH3^Cse4-lacI (Saccharomyces cerevisiae).

Consider BubR1 (natural protein), for which, in assay [1], the silencing of the white-reporter (eye pigmentation) in S9.2 flies on tethering of the lacI fusion: share of lines with significant silencing is 50 % of lines. In assay [2], the silencing of the white-reporter (eye pigmentation) in S9.2 flies on tethering of the lacI fusion: share of lines with strong silencing is 75 % of lines.
